# Experimental data taken from publication PMC4374754.
# B1: DNA polymerase V (UmuD′2C) (complex)
# chain 1: MFALCDVNAFYASCETVFRPDLWGKPVVVLSNNDGCVIARNAEAKALGVKMGDPWFKQKDLFRRCGVVCFSSNYELYADMSNRVMSTLEELSPRVEIYSIDEAFCDLTGVRNCRDLTDFGREIRATVLQRTHLTVGVGIAQTKTLAKLANHAAKKWQRQTGGVVDLSNLERQRKLMSALPVDDVWGIGRRISKKLDAMGIKTVLDLADTDIRFIRKHFNVVLERTVRELRGEPCLQLEEFAPTKQEIICSRSFGERITDYPSMRQAICSYAARAAEKLRSEHQYCRFISTFIKTSPFALNEPYYGNSASVKLLTPTQDSRDIINAATRSLDAIWQAGHRYQKAGVMLGDFFSQGVAQLNLFDDNAPRPGSEQLMTVMDTLNAKEGRGTLYFAGQGIQQQWQMKRAMLSPRYTTRSSDLLRVK
# chain 2: GFPSPAADYVEQRIDLNQLLIQHPSATYFVKASGDSMIDGGISDGDLLIVDSAITASHGDIVIAAVDGEFTVKKLQLRPTVQLIPMNSAYSPITISSEDTLDVFGVVIHVVKAMR
# Tests used:
# [1] = target: RecA D112R, fluorescein-labelled (E. coli); assay: fluorescence polarisation; 20 nM fluorescein-labelled RecA titrated with pol V in solution, no ssDNA (inactive complex); pol V standard reaction buffer (20 mM Tris pH 7.5, 8 mM MgCl2, 5 mM DTT, 0.1 mM EDTA, 25 mM sodium glutamate, 4% glycerol), 25°C; apparent Kd, one-site specific binding
# [2] = target: RecA D112R N113R, fluorescein-labelled (E. coli); assay: as above
# [3] = target: RecA D112R (E. coli)
binder,measurement,setting,value
B1,Kd,[1],250 nM
same,Kd,[2],250 nM
same,"primer utilization in the pol V transactivation assay (RecA* on poly dT, hairpin primer-template, 1 h at 37°C)",[3],27%
